Here are results for one molecule from patent WO2021212049A2.

Some results are limits rather than exact numbers.

For the assay, the target named is recombinant SARS-CoV-2 S protein ectodomain (residues 14-1211), 2P, furin site mutated, foldon, 8XHis (SARS-CoV-2), P0DTC2. Description: ELISA on coated antigen, anti-human IgG-HRP. The conditions noted are these: remark: other sources report otherwise. (In general: ELISA stands for enzyme-linked immunosorbent assay.)

B1: mAb 2H04 (antibody)
chain 1: EVQLQQSGAELVKPGASVKMSCKASGYTFTSYWITWVKQRPGQGLEWIGDIYPGSGSTKYNEKFRSEATLTVDTSSTTAYMQLSSLTSEDSAVYYCARWDFYGSRTFDYWGQGTTLTVSS
chain 2: DIVLTQSPAILSVSPGERVSFSCRASQNIGTIIHWYQQRTNGSPRLLIKYASESVSGIPSRFSGSGSGTDFTLSINSVESEDIADYYCQQSSSWPLTFGAGTKLELK
As for B1, the minimum positive concentration was less than 5 µg/mL.
